Nine proteins from paper PMC9418156 can be followed below.

Series [1] in a line: co-transfection with HA-LAT1, brefeldin washout, confocal. To be noted: glycan lost; control: wild type.
Series [2] can be described thus: surface biotinylation, anti-LAT1 blot. As to conditions: glycan lost; control: wild type.
Series [3] is described as follows: brefeldin A washout, confocal time course. To be noted: glycan lost; control: wild type.
A short description of series [4]: cycloheximide chase, anti-FLAG blot. As to conditions: glycan lost; control: wild type.
Series [5] is described as follows: cell surface biotinylation, anti-FLAG blot. To be noted: glycan lost; control: wild type.
Series [6] is described as follows: confocal, surface anti-CD98 vs anti-FLAG, HEK293. As to conditions: glycan lost; control: wild type.
A short description of series [7]: tunicamycin then surface biotinylation (Fig. S1). As to conditions: glycan lost; control: vehicle (DMSO).

B1: CD98 (SLC3A2, 4F2hc): Qm (protein)
parent chain: MELQPPEASIAVVSIPRQLPGSHSEAGVQGLSAGDDSELGSHCVAQTGLELLASGDPLPSASQNAEMIETGSDCVTQAGLQLLASSDPPALASKNAEVTGTMSQDTEVDMKEVELNELEPEKQPMNAASGAAMSLAGAEKNGLVKIKVAEDEAEAAAAAKFTGLSKEELLKVAGSPGWVRTRWALLLLFWLGWLGMLAGAVVIIVRAPRCRELPAQKWWHTGALYRIGDLQAFQGHGAGNLAGLKGRLDYLSSLKVKGLVLGPIHKNQKDDVAQTDLLQIDPNFGSKEDFDSLLQSAKKKSIRVILDLTPNYRGENSWFSTQVDTVATKVKDALEFWLQAGVDGFQVRDIENLKDASSFLAEWQNITKGFSEDRLLIAGTNSSDLQQILSLLESNKDLLLTSSYLSDSGSTGEHTKSLVTQYLNATGNRWCSWSLSQARLLTSFLPAQLLRLYQLMLFTLPGTPVFSYGDEIGLDAAALPGQPMEAPVMLWDESSFPDIPGAVSANMTVKGQSEDPGSLLSLFRRLSDQRSKERSLLHGDFHAFSAGPGLFSYIRHWDQNERFLVVLNFGDVGLSAGLQASDLPASASLPAKADLLLSTQPGREEGSPLELERLKLEPHEGLLLRFPYAA
For B1, the results for the “other: routing of partner LAT1 to plasma membrane” value in series [1] and in series [2] were “decreases” and “abolishes”, respectively. Also, the localisation_or_trafficking result in series [3] and in series [5] was “decreases” in each case. Moreover, the “degradation_or_half_life, other: percent of initial protein after 6 h” value in series [4] was “decreases, <20 vs >50”.

B2: CD98 (SLC3A2, 4F2hc): N365Q (protein)
parent chain: B1 parent chain
With B2, the localisation_or_trafficking result in series [6] is listed as “no change”.

B3: CD98 (SLC3A2, 4F2hc): tunicamycin (protein)
parent chain: B1 parent chain
In the case of B3, in series [7], the localisation_or_trafficking result is recorded as “decreases”.

B4: CD98 (SLC3A2, 4F2hc): Tm (N365/381/424Q) (protein)
parent chain: B1 parent chain
Turning to B4, the localisation_or_trafficking result in series [6] is reported as “changes”.

B5: CD98 (SLC3A2, 4F2hc): N424Q (protein)
parent chain: B1 parent chain
On to B5, for which, in series [6], the localisation_or_trafficking entry is listed as “no change”.

B6: CD98 (SLC3A2, 4F2hc): Qm (N365/381/424/506Q) (protein)
parent chain: B1 parent chain
Take B6: in series [6], the localisation_or_trafficking result is “decreases”.

B7: CD98 (SLC3A2, 4F2hc): N506Q (protein)
parent chain: B1 parent chain
Consider B7, for which the localisation_or_trafficking entry in series [6] was “no change”.

B8: CD98 (SLC3A2, 4F2hc): N381Q (protein)
parent chain: B1 parent chain
Turning to B8, the localisation_or_trafficking entry in series [6] is on record as “no change”.

B9: CD98 (SLC3A2, 4F2hc): Dm (N381/424Q) (protein)
parent chain: B1 parent chain
For the protein B9, the localisation_or_trafficking entry in series [6] is listed as “changes”.
